Assay results reported in paper PMC4546648.

Target: GST-K15P cytoplasmic domain (aa 347-489) (Kaposi's sarcoma herpesvirus (KSHV, HHV-8)) (UniProt Q9QR69)
Test: SPR; Biacore X100; GST-K15P cytoplasmic tail amine-coupled to a CM4 chip (207 RU); His-tagged PLCγ2 cSH2 wt or SB injected at 1.5, 3, 6, 12, 24 nM, single cycle kinetics, 30 μl/min, HBS-EP buffer pH 7.4

Substance	Kd [nM]
His-tagged PLCγ2 cSH2 S677V/R695L superbinder, purified from E. coli (domain or fragment)	3.8
His-tagged PLCγ2 cSH2 domain wt, purified from E. coli (from UniProt P16885 1-1265) (domain or fragment)	5.8
